The values that follow come from the supplement of paper PMC9112550, “Optimization of the antimicrobial peptide Bac7 by deep mutational scanning” (BMC Biology, 2022).

The test system of this data set is Escherichia coli TOP10. Description: shrunken log2 fold change of peptide-encoding DNA abundance (4.5 h post-induction vs induction); higher = less antimicrobial activity (less host growth inhibition). The note with it: time post-induction: 4.5 h; library: site-saturation at positions 5, 18, 19, 20.
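Note: peptides expressed intracellularly from a pBAD plasmid library in pooled LB shake-flask culture, induced with 0.3% L-arabinose, DNA abundance read by NGS, three biological replicates, DESeq2 with apeglm shrinkage.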

With RRIRARPPRLPRPRPRPPDYPRP, the “shrunken log2 fold change” value stood at 0.406.

Consider RRIRFRPPRLPRPRPRPYVAPRP, for which the “shrunken log2 fold change” value was -0.62. The value for RRIRRRPPRLPRPRPRPAIEPRP was 0.109; that for RRIRQRPPRLPRPRPRPRCDPRP was -0.255; that for RRIRFRPPRLPRPRPRPIYEPRP was -0.632.

Take RRIRVRPPRLPRPRPRPVIYPRP: the “shrunken log2 fold change” value was -0.39. The value for RRIRERPPRLPRPRPRPEQFPRP was -0.0286; that for RRIRYRPPRLPRPRPRPGRIPRP was 0.0959.

Take RRIRNRPPRLPRPRPRPASMPRP: the “shrunken log2 fold change” value was -0.064. The result for RRIRWRPPRLPRPRPRPNSKPRP reads -0.218; that for RRIRYRPPRLPRPRPRPGWEPRP, -0.143; that for RRIRHRPPRLPRPRPRPVREPRP, 0.522. RRIRKRPPRLPRPRPRPDAFPRP: the “shrunken log2 fold change” value was 0.00489. The result for RRIRTRPPRLPRPRPRPPIMPRP reads -0.454; that for RRIRVRPPRLPRPRPRPFNYPRP, -0.975; that for RRIRERPPRLPRPRPRPEQSPRP, -0.0108. The result for RRIRDRPPRLPRPRPRPCRNPRP reads -0.000921; that for RRIRMRPPRLPRPRPRPQGWPRP, 1.01; that for RRIRIRPPRLPRPRPRPPVAPRP, 0.123. The value for RRIRGRPPRLPRPRPRPHPNPRP was 0.547; that for RRIRNRPPRLPRPRPRPYYFPRP was -0.695. With RRIRCRPPRLPRPRPRPCFFPRP, the “shrunken log2 fold change” value stood at 0.392.

For RRIRGRPPRLPRPRPRPGMYPRP, the “shrunken log2 fold change” value came to 0.191. The value for RRIRHRPPRLPRPRPRPWLQPRP was 0.0358. The value for RRIRMRPPRLPRPRPRPTIPPRP was -0.316. Regarding RRIRARPPRLPRPRPRPSMMPRP, the “shrunken log2 fold change” value turned out to be 0.162.

In the case of RRIRWRPPRLPRPRPRPKWMPRP, the “shrunken log2 fold change” value is 0.242. On to RRIRIRPPRLPRPRPRPVIWPRP, for which the “shrunken log2 fold change” value amounted to 0.204. The value for RRIRTRPPRLPRPRPRPHPYPRP was 0.0733; that for RRIRYRPPRLPRPRPRPTWFPRP was -0.351.

Regarding RRIRTRPPRLPRPRPRPHYIPRP, the “shrunken log2 fold change” value was -0.105. In the case of RRIRIRPPRLPRPRPRPFQRPRP, the “shrunken log2 fold change” value is -0.0107.

Consider RRIRARPPRLPRPRPRPWLTPRP, for which the “shrunken log2 fold change” value was found to be 0.0459. The result for RRIRWRPPRLPRPRPRPRKDPRP reads -0.0246. The result for RRIRLRPPRLPRPRPRPGTNPRP reads -0.0983; that for RRIRRRPPRLPRPRPRPPILPRP, -0.1. As for RRIRERPPRLPRPRPRPLFFPRP, the “shrunken log2 fold change” value is -0.225. On to RRIRDRPPRLPRPRPRPPNFPRP, for which the “shrunken log2 fold change” value came to 0.0198. In the case of RRIRTRPPRLPRPRPRPTQAPRP, the “shrunken log2 fold change” value came to 0.111. The value for RRIRYRPPRLPRPRPRPHIYPRP was -0.725; that for RRIRVRPPRLPRPRPRPACRPRP was -0.132; that for RRIRGRPPRLPRPRPRPTGIPRP was -0.0412. The result for RRIRIRPPRLPRPRPRPNDEPRP reads -0.781; that for RRIRIRPPRLPRPRPRPKGHPRP, 0.0764; that for RRIRKRPPRLPRPRPRPFMLPRP, -0.0682. The value for RRIRYRPPRLPRPRPRPTSVPRP was -0.395; that for RRIRVRPPRLPRPRPRPMCPPRP was 0.0857; that for RRIRLRPPRLPRPRPRPMNSPRP was -0.406. Take RRIRRRPPRLPRPRPRPIYIPRP: the “shrunken log2 fold change” value is -0.184. The result for RRIRMRPPRLPRPRPRPADSPRP reads 0.264; that for RRIRVRPPRLPRPRPRPAQTPRP, 0.442; that for RRIRVRPPRLPRPRPRPFGIPRP, -0.371.

For RRIRNRPPRLPRPRPRPNAHPRP, the “shrunken log2 fold change” value is -0.456.

With RRIRVRPPRLPRPRPRPSPCPRP, the “shrunken log2 fold change” value was -0.145.

Consider RRIRGRPPRLPRPRPRPEWAPRP, for which the “shrunken log2 fold change” value is 1.07. The result for RRIRNRPPRLPRPRPRPVLQPRP reads -0.157; that for RRIRKRPPRLPRPRPRPKLVPRP, 0.0448; that for RRIRVRPPRLPRPRPRPPNIPRP, -0.475.

As for RRIRVRPPRLPRPRPRPANMPRP, the “shrunken log2 fold change” value was determined as 0.00908. In the case of RRIRQRPPRLPRPRPRPYYFPRP, the “shrunken log2 fold change” value was -0.661. The result for RRIRERPPRLPRPRPRPYRYPRP reads -0.107; that for RRIRMRPPRLPRPRPRPLICPRP, 0.108. The result for RRIRYRPPRLPRPRPRPKCYPRP reads -0.112; that for RRIRARPPRLPRPRPRPRYNPRP, -0.487.

With RRIRRRPPRLPRPRPRPVLRPRP, the “shrunken log2 fold change” value worked out at 1.11. For RRIRNRPPRLPRPRPRPLACPRP, the “shrunken log2 fold change” value amounted to 0.118. The result for RRIRYRPPRLPRPRPRPMCLPRP reads -0.0113. On to RRIRGRPPRLPRPRPRPYPYPRP, for which the “shrunken log2 fold change” value is -0.095. The result for RRIRTRPPRLPRPRPRPGSCPRP reads 0.083; that for RRIRVRPPRLPRPRPRPWVNPRP, 0.0119; that for RRIRERPPRLPRPRPRPNLHPRP, 0.504. The result for RRIRARPPRLPRPRPRPPMNPRP reads 0.134.

RRIRERPPRLPRPRPRPFDPPRP: the “shrunken log2 fold change” value is 0.0149.

Take RRIRSRPPRLPRPRPRPGYLPRP: the “shrunken log2 fold change” value was -0.388. For RRIRYRPPRLPRPRPRPFNTPRP, the “shrunken log2 fold change” value is -0.468. For the sequence RRIRMRPPRLPRPRPRPHWAPRP, the “shrunken log2 fold change” value was 0.00824. The result for RRIRYRPPRLPRPRPRPLWGPRP reads -0.203. On to RRIRDRPPRLPRPRPRPNTKPRP, for which the “shrunken log2 fold change” value is -0.124. The result for RRIRQRPPRLPRPRPRPCIGPRP reads -0.204; that for RRIRNRPPRLPRPRPRPKYWPRP, -0.387; that for RRIRLRPPRLPRPRPRPLHSPRP, -0.0843.

Turning to RRIRWRPPRLPRPRPRPEQIPRP, the “shrunken log2 fold change” value stood at 0.199. The value for RRIRARPPRLPRPRPRPIKDPRP was 0.0786. For the sequence RRIRNRPPRLPRPRPRPLAKPRP, the “shrunken log2 fold change” value came to 0.249.

In the case of RRIRWRPPRLPRPRPRPCAVPRP, the “shrunken log2 fold change” value stood at 0.198.

Take RRIRPRPPRLPRPRPRPHGEPRP: the “shrunken log2 fold change” value was -0.159. As to RRIRMRPPRLPRPRPRPAVGPRP, the “shrunken log2 fold change” value was determined as 0.5. The value for RRIRVRPPRLPRPRPRPPREPRP was 0.267; that for RRIRIRPPRLPRPRPRPWKVPRP was 0.0349. RRIRNRPPRLPRPRPRPHGRPRP: the “shrunken log2 fold change” value came to 0.00746. For RRIRKRPPRLPRPRPRPQETPRP, the “shrunken log2 fold change” value is -0.0167. On to RRIRYRPPRLPRPRPRPPRPPRP, for which the “shrunken log2 fold change” value came to 0.637. With RRIRLRPPRLPRPRPRPEHVPRP, the “shrunken log2 fold change” value was -0.0237. The result for RRIRWRPPRLPRPRPRPQYPPRP reads -0.139. On to RRIRIRPPRLPRPRPRPSEDPRP, for which the “shrunken log2 fold change” value was -0.212.

Take RRIRLRPPRLPRPRPRPVVCPRP: the “shrunken log2 fold change” value was -0.0501. The result for RRIRPRPPRLPRPRPRPFLGPRP reads -0.0178; that for RRIRFRPPRLPRPRPRPTCPPRP, 0.174; that for RRIRLRPPRLPRPRPRPCTMPRP, -0.152. Take RRIRLRPPRLPRPRPRPQSQPRP: the “shrunken log2 fold change” value is -0.179. The value for RRIRIRPPRLPRPRPRPKFLPRP was -0.537.

Regarding RRIRTRPPRLPRPRPRPVVRPRP, the “shrunken log2 fold change” value was -0.00389. The result for RRIRIRPPRLPRPRPRPYCGPRP reads -0.179. For the sequence RRIRTRPPRLPRPRPRPPFKPRP, the “shrunken log2 fold change” value was 0.332. For RRIRSRPPRLPRPRPRPNESPRP, the “shrunken log2 fold change” value is -0.153. The value for RRIRSRPPRLPRPRPRPKLGPRP was 0.281; that for RRIRTRPPRLPRPRPRPWQKPRP was -0.1. The value for RRIRSRPPRLPRPRPRPSGRPRP was 0.185. The result for RRIRIRPPRLPRPRPRPNHFPRP reads -0.694; that for RRIRNRPPRLPRPRPRPYCFPRP, -0.516.

Turning to RRIRLRPPRLPRPRPRPRACPRP, the “shrunken log2 fold change” value turned out to be 0.223. The result for RRIRGRPPRLPRPRPRPKCFPRP reads 0.852; that for RRIRQRPPRLPRPRPRPEPRPRP, 0.508; that for RRIRSRPPRLPRPRPRPSCKPRP, -0.797. The result for RRIRNRPPRLPRPRPRPWIWPRP reads -0.151; that for RRIRQRPPRLPRPRPRPINKPRP, -0.318. The value for RRIRSRPPRLPRPRPRPGITPRP was -0.151; that for RRIRFRPPRLPRPRPRPAGPPRP was 0.118; that for RRIRQRPPRLPRPRPRPAHNPRP was -0.0225. Take RRIRDRPPRLPRPRPRPRKMPRP: the “shrunken log2 fold change” value was 0.154. The result for RRIRSRPPRLPRPRPRPTGVPRP reads 0.0241; that for RRIRWRPPRLPRPRPRPNCEPRP, 0.0915; that for RRIRFRPPRLPRPRPRPAYIPRP, -0.601. The result for RRIRGRPPRLPRPRPRPRVTPRP reads 0.744. The result for RRIRNRPPRLPRPRPRPGNWPRP reads 0.0557.
